Laboratory results reported in US20160115235A1 (ARES TRADING S A, published 2016).
Where a chain is given by its changes, count along the chain named. Values belong to the binder of their own block, whether it stands above or below them.

How the values were obtained:
human CXCR5 [1] = target: T1, human CXCR5 (human, UniProt P32302 1-372); assay: KinExA, IgG2 mAb equilibrated with HEK-293 cells expressing human CXCR5, n-curve analysis
T1 construct: Full length, on stably transfected cells (HEK-293, L1.2, R1610 and others), made with or without a C-terminal tag, or native on primary human B cells; also called hCXCR5; BLR-1
T1 sequence: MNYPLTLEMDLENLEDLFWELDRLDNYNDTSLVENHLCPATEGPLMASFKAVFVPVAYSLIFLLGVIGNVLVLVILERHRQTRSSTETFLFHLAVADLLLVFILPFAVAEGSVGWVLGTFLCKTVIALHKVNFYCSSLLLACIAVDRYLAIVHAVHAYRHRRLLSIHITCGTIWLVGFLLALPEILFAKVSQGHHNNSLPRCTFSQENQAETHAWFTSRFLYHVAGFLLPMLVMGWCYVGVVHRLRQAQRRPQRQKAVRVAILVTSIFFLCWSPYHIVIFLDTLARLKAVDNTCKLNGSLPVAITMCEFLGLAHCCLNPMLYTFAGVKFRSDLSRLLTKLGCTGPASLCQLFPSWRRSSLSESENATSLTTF
Experimental: Kinetic Exclusion Assay (KinExA) was used to determine the concentration of the free antibody that remains in solution after equilibrium has been established between the fully human IgG2 (subtype HC2h, as described in WO2009010290) anti-CXCR5 40C01 antibody variants and human CXCR5 expressed on the cell surface of stably transfected HEK-293 cells, from which the equilibrium dissociation constant (Kd) was determined. This method provides a true measure of the affinity/avidity of the antibody to integral membrane proteins like GPCRs.
HEK-293 cells, stably expressing human CXCR5, an integral membrane protein with 7 trans membrane domains, were harvested using Accutase cell detachment solution, resuspended at 2×10⁶ cells/ml and serially diluted 1 in 2 in 15 falcon tubes using KinExA buffer (PBS containing 1 mg/ml BSA and 0.02% NaN₃). An appropriate constant concentration of purified mAb was made in KinExA buffer and an equal volume of the mAb was mixed with the serially diluted cells. […] The cells were then centrifuged and the free mAb present in the supernatant was measured by KinExA using PMMA beads (Sapidyne Instruments, cat#440198) coated with goat anti-human IgG (H+L) (Jackson ImmunoResearch, cat#109-005-003) and DyLight 649-conjugated anti-human secondary antibody (Jackson ImmunoResearch, Goat anti-human Fc, cat#109-495-098) used at 1 μg/ml in KinExA buffer. […]

human CXCR5 [2] = target: T1, human CXCR5; assay: cell-based or functional assay
human CXCR5 [3] = target: T1, human CXCR5; assay: cell-based or functional assay; remark: listed apart in the source
[4] = target: T2, cynomolgus monkey (Macaca fascicularis) CXCR5 (cynomolgus monkey (Macaca fascicularis), UniProt P32302 1-372 (human entry)); assay: cell-based or functional assay
T2 chain: T1 sequence with W19L, L21F, R23K, L24F, L180F, G193A, H195P, A285V, K295E, R357K

human CXCR5 [5] = target: T1, human CXCR5; assay: cell-based or functional assay; remark: listed apart in the source
human CXCR2 = target: T3, human CXCR2 (human, UniProt P25025 1-360); assay: flow cytometry, Alexa-Fluor 647 labelled mAb in human whole blood
T3 construct: whole, on cells; Native on the granulocyte population of human whole blood
T3 sequence (looked up): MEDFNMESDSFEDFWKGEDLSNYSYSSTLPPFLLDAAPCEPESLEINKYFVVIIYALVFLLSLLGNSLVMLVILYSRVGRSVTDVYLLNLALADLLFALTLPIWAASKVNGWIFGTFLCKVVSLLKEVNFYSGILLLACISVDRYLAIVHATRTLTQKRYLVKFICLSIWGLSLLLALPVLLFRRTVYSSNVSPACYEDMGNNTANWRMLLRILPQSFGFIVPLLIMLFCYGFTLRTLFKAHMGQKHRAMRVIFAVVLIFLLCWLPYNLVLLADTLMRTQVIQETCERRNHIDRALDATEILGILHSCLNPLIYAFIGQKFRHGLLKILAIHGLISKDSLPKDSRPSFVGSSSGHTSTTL
Experimental: (§1) 40C01-VH1-Vk3 and VH2-Vk3 variants were labelled with Alexa Fluor 647 dye using monoclonal antibody labelling kit from Invitrogen (Cat #A20186). Blood was collected in sodium-heparinised tubes and rested for 2 h at RT. Sodium azide (NaN₃) was then added to whole blood to a final concentration of 0.01%. Serial 1 in 3 dilutions of Alexa-Fluor 647 labelled-mAbs ranging from 60 μg/ml to 3 ng/ml were added to blood samples and incubated for 30 min at RT. Phycoerythrin (PE) labelled anti-CD19 (BD Pharmingen, cat#555413) and anti-human CXCR2 (R&D Systems, cat #FAB331P) mAbs and their respective isotype controls were used for gating B cells and monitoring CXCR2 expression on granulocytes, respectively. Labelled red blood cells were then lysed using the human erythrocyte lysing kit from R&D Systems (Cat # WL1000) and the blood cells resuspended in FACS buffer (PBS-1% BSA, 0.1% NaN₃) and analysed by flow cytometry on FACS Calibur 3 (BD Biosciences). The EC₅₀ and ECB, values were calculated by plotting the FL4 fluorescence (emission of Alexa Fluor 647 dye) as a function of the antibody concentration. […] No binding of the two 40C01 variants was detected on the granulocyte population which expresses CXCR2 (neutrophils).

human CXCR5 [6] = target: T1, human CXCR5; assay: flow cytometry, Alexa Fluor 647 labelled mAb on HEK-293 cells stably transfected with human CXCR5; 40C01-VH1-Vk3, Alexa Fluor 647 labelled, HEK-293 cells with human CXCR5
Experimental: (§2) Anti-CXCR5 40C01-VH1-Vk3 and VH2-Vk3 variants were labelled with Alexa Fluor 647 dye using monoclonal antibody labelling kit from Invitrogen (Cat #A20186). Binding of labelled mAbs to HEK-293 cells stably transfected with human CXCR5 was examined by a direct immunofluorescence assay. A total of 1×10⁵ stable HEK-293 cells over-expressing human CXCR5 were incubated with 1 in 3 serially diluted Alexa Fluor 647 mAbs ranging from 60 μg/ml to 0.33 ng/ml in FACS buffer (PBS containing 1% BSA and 0.1% NaN₃) for 1 h on ice. Cells were washed twice with FACS buffer and analyzed on FACSCalbur flow cytometer (BD Biosciences).

human CXCR5 [7] = target: T1, human CXCR5; assay: flow cytometry, Alexa Fluor 647 labelled mAb on CD19-gated human B cells in whole blood
Experimental: as §1

human CXCR5 [8] = target: T1, human CXCR5; assay: flow cytometry, Alexa Fluor 647 labelled mAb on HEK-293 cells stably transfected with human CXCR5; 40C01-VH2-Vk3, Alexa Fluor 647 labelled, HEK-293 cells with human CXCR5
Experimental: as §2

B1: anti-CXCR5 40C01-VH1-Vk3-IgG2_DI-NQ-HC2h (antibody)
heavy: EVQLLESGGGLVQPGGSLRLSCAASGFTFSRYVMVWVRQAPGKGLEWVSGISPSGGVTRYAASVKGRFTISRDNSKNTLYLQMNSLRAEDTAVYYCARIRKEMTTISYFFDYWGQGTLVTVSSASTKGPSVFPLAPCSRSTSESTAALGCLVKDYFPEPVTVSWNSGALTSGVHTFPAVLQSSGLYSLSSVVTVPSSNFGTQTYTCNVDHKPSNTKVDKTVEPKSSDKTHTCPPCPAPPVAGPSVFLFPPKPKDTLMISRTPEVTCVVVDVSHEDPEVQFNWYVDGVEVHNAKTKPREEQAQSTFRVVSVLTVVHQDWLNGKEYKCKVSNKGLPAPIEKTISKTKGQPREPQVYTLPPSREEMTKNQVSLTCLVKGFYPSDIAVEWESNGQPENNYKTTPPMLDSDGSFFLYSKLTVDKSRWQQGNVFSCSVMHEALHNHYTQKSLSLSPG
light: DIQMTQSPSSLSASVGDRVTITCRASQGVDAYVAWYQQKPGKVPKLLIYSTSTLASGVPSRFSGSGSGTDFTLTISSLQPEDVATYYCQSHNAAVVTFGQGTRLEIKRTVAAPSVFIFPPSDEQLKSGTASVVCLLNNFYPREAKVQWKVDNALQSGNSQESVTEQDSKDSTYSLSSTLTLSKADYEKHKVYACEVTHQGLSSPVTKSFNRGEC
notes: Whole antibody, modified human IgG2 (subtype HC2h, WO2009010290), kappa light chain; also called 40C01-VH1-Vk3 as IgG2; VH1-Vk3 (isotype 2)
Kd (human CXCR5 [1]): 0.0154 nM
IC50, inhibition of CXCL13-induced L1.2-CXCR5 chemotaxis (human CXCR5 [2]): 1.15 nM
IC50, inhibition of ERK phosphorylation in whole blood (B cells, CXCL13-stimulated) (human CXCR5 [3]): 0.736 nM
IC50, inhibition of ERK phosphorylation in whole blood (B cells, CXCL13-stimulated) [4]: 0.195 nM
efficacy of inhibition of CXCL13-stimulated L1.2-CXCR5 chemotaxis (human CXCR5 [5]): 100%

B4: anti-CXCR5 40C01-VH2-Vk3 variant (isotype not stated in the example) (antibody, V domains shown)
VH: EVQLLESGGGLVQPGGSLRLSCAASGFTFSRSVMVWVRQAPGKGLEWVSGISPSGGVTRYAASVKGRFTISRDNSKNTLYLQMNSLRAEDTAVYYCARIRKEKTTISYFFDYWGQGTLVTVSS
VL: DIQMTQSPSSLSASVGDRVTITCRASQGVDAYVAWYQQKPGKVPKLLIYSTSTLASGVPSRFSGSGSGTDFTLTISSLQPEDVATYYCQSHNAAVVTFGQGTRLEIK
notes: also called Alexa-Fluor 647 labelled 40C01-VH2-Vk3
binding result (human CXCR2): no binding (tested: 60 µg/ml to 3 ng/ml tested)
EC50 (human CXCR5 [7]): 7.22 nM
EC50 (human CXCR5 [8]): 4.6 nM

The next lines start with results.

Kd (human CXCR5 [1]): 0.047 nM
IC50, inhibition of CXCL13-induced L1.2-CXCR5 chemotaxis (human CXCR5 [2]): 0.108 nM
IC50, inhibition of ERK phosphorylation in whole blood (B cells, CXCL13-stimulated) (human CXCR5 [3]): 0.88 nM
IC50, inhibition of ERK phosphorylation in whole blood (B cells, CXCL13-stimulated) [4]: 1.57 nM
efficacy of inhibition of CXCL13-stimulated L1.2-CXCR5 chemotaxis (human CXCR5 [5]): 100%
B2: anti-CXCR5 40C01-VH2-Vk3 as IgG2 (antibody)
heavy: B1 heavy with Y32S, M103K
light: B1 light
notes: also called VH2-Vk3 (isotype 2)

EC50 (human CXCR5 [6]): 2.26 nM
EC50 (human CXCR5 [7]): 1.92 nM
B3: anti-CXCR5 40C01-VH1-Vk3 variant (isotype not stated in the example) (antibody, V domains shown)
VH: B4 VH with S32Y, K103M
VL: B4 VL
notes: also called Alexa-Fluor 647 labelled 40C01-VH1-Vk3
binding result (human CXCR2): no binding (tested: 60 µg/ml to 3 ng/ml tested)
